T1: Boi1 SH3 (BOI1_YEAST), P38041
T1 chain: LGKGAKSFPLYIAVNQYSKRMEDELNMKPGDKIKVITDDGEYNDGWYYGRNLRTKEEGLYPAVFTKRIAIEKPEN

T2: Boi2 SH3 (BOI2_YEAST), P39969
T2 chain: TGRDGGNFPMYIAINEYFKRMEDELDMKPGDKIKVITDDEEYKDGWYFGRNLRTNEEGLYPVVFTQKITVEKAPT

T3: Myo5 SH3 (MYO5_YEAST), Q04439
T3 chain: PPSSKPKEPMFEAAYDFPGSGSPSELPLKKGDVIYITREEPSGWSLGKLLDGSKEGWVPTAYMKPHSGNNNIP

T4: Rvs167 SH3 (RV167_YEAST), P39743
T4 chain: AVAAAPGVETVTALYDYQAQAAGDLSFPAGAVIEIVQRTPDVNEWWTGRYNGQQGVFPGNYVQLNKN

T5: Yfr024 SH3 (LSB3_YEAST), P43603
T5 chain: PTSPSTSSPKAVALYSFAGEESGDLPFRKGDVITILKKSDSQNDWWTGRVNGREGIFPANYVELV

T6: Yhr016c SH3 (YSC84_YEAST), P32793
T6 chain: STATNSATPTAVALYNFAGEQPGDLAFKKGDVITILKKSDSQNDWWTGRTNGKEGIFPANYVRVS


Molecular target: T1, Boi1 SH3 (BOI1_YEAST), P38041
Experiment: SPOT array

normalised SPOT signal, Boehringer light units (BLU); mean over the file's lines of this peptide | Binder
571 | PSSKKNKPNPPPGS [YJL056C 176-189]
93.5 | PSSHKRKPVIPWDA [YNL295W 201-214]
58 | PTVQKFSPHPPTTL [YER144C 362-375]
-0 | QELPRAIPVMPFVD [YJL020C 471-484]
2030 | PVRSRVLPATPRQI [YKL086W 103-116]
177 | PYMYKYLPRFPNLK [YPL137C 764-777]
102 | QATGRRGPAPPPPP [YOR181W 378-391]
93.8 | PVPVRMQPQPPQPM [YBR108W 383-396]
168 | PTANKYAPVSPTVQ [YPL085W 797-810]
188 | PSHYRNIPYNPATF [YBR194W 90-103]
196 | PSRSKSNPILPIMR [YLR319C 684-697]

Molecular target: T2, Boi2 SH3 (BOI2_YEAST), P39969
Experiment: SPOT array

normalised SPOT signal, Boehringer light units (BLU); mean over the file's lines of this peptide | Binder
0.8 | PSSKKNKPNPPPGS [YJL056C 176-189]
40.8 | PSSHKRKPVIPWDA [YNL295W 201-214]
14.5 | PTVQKFSPHPPTTL [YER144C 362-375]
22.2 | QELPRAIPVMPFVD [YJL020C 471-484]
35.9 | PVRSRVLPATPRQI [YKL086W 103-116]
991 | PYMYKYLPRFPNLK [YPL137C 764-777]
11.1 | QATGRRGPAPPPPP [YOR181W 378-391]
85.6 | PVPVRMQPQPPQPM [YBR108W 383-396]
27.4 | PTANKYAPVSPTVQ [YPL085W 797-810]
8.5 | PSHYRNIPYNPATF [YBR194W 90-103]
25.1 | PSRSKSNPILPIMR [YLR319C 684-697]

Molecular target: T3, Myo5 SH3 (MYO5_YEAST), Q04439
Experiment: SPOT array

normalised SPOT signal, Boehringer light units (BLU); mean over the file's lines of this peptide | Binder
107 | PSSKKNKPNPPPGS [YJL056C 176-189]
289 | PSSHKRKPVIPWDA [YNL295W 201-214]
213 | PTVQKFSPHPPTTL [YER144C 362-375]
118 | QELPRAIPVMPFVD [YJL020C 471-484]
1470 | PVRSRVLPATPRQI [YKL086W 103-116]
382 | PYMYKYLPRFPNLK [YPL137C 764-777]
607 | QATGRRGPAPPPPP [YOR181W 378-391]
188 | PVPVRMQPQPPQPM [YBR108W 383-396]
191 | PTANKYAPVSPTVQ [YPL085W 797-810]
175 | PSHYRNIPYNPATF [YBR194W 90-103]
523 | PSRSKSNPILPIMR [YLR319C 684-697]

Molecular target: T4, Rvs167 SH3 (RV167_YEAST), P39743
Experiment: SPOT array

normalised SPOT signal, Boehringer light units (BLU); mean over the file's lines of this peptide | Binder
40.5 | PSSKKNKPNPPPGS [YJL056C 176-189]
52 | PSSHKRKPVIPWDA [YNL295W 201-214]
20.8 | PTVQKFSPHPPTTL [YER144C 362-375]
57 | QELPRAIPVMPFVD [YJL020C 471-484]
10400 | PVRSRVLPATPRQI [YKL086W 103-116]
920 | PYMYKYLPRFPNLK [YPL137C 764-777]
30.1 | QATGRRGPAPPPPP [YOR181W 378-391]
70.5 | PVPVRMQPQPPQPM [YBR108W 383-396]
93.3 | PTANKYAPVSPTVQ [YPL085W 797-810]
27.8 | PSHYRNIPYNPATF [YBR194W 90-103]
246 | PSRSKSNPILPIMR [YLR319C 684-697]

Molecular target: Sho1 SH3 (SHO1_YEAST), P40073
Experiment: SPOT array

Sequence of Sho1 SH3 (SHO1_YEAST), P40073 (P40073 295-366): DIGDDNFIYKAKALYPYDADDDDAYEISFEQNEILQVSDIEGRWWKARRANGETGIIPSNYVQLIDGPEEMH

normalised SPOT signal, Boehringer light units (BLU); mean over the file's lines of this peptide | Binder
72.1 | PSSKKNKPNPPPGS [YJL056C 176-189]
79.1 | PSSHKRKPVIPWDA [YNL295W 201-214]
44.4 | PTVQKFSPHPPTTL [YER144C 362-375]
11.6 | QELPRAIPVMPFVD [YJL020C 471-484]
28200 | PVRSRVLPATPRQI [YKL086W 103-116]
1590 | PYMYKYLPRFPNLK [YPL137C 764-777]
63.2 | QATGRRGPAPPPPP [YOR181W 378-391]
71.7 | PVPVRMQPQPPQPM [YBR108W 383-396]
37.8 | PTANKYAPVSPTVQ [YPL085W 797-810]
65.2 | PSHYRNIPYNPATF [YBR194W 90-103]
98.4 | PSRSKSNPILPIMR [YLR319C 684-697]

Molecular target: T5, Yfr024 SH3 (LSB3_YEAST), P43603
Experiment: SPOT array

normalised SPOT signal, Boehringer light units (BLU); mean over the file's lines of this peptide | Binder
49.2 | PSSKKNKPNPPPGS [YJL056C 176-189]
65.5 | PSSHKRKPVIPWDA [YNL295W 201-214]
10.2 | PTVQKFSPHPPTTL [YER144C 362-375]
700 | QELPRAIPVMPFVD [YJL020C 471-484]
15900 | PVRSRVLPATPRQI [YKL086W 103-116]
1150 | PYMYKYLPRFPNLK [YPL137C 764-777]
49.6 | QATGRRGPAPPPPP [YOR181W 378-391]
1650 | PVPVRMQPQPPQPM [YBR108W 383-396]
0 | PTANKYAPVSPTVQ [YPL085W 797-810]
100 | PSHYRNIPYNPATF [YBR194W 90-103]
1260 | PSRSKSNPILPIMR [YLR319C 684-697]

Molecular target: T6, Yhr016c SH3 (YSC84_YEAST), P32793
Experiment: SPOT array

normalised SPOT signal, Boehringer light units (BLU); mean over the file's lines of this peptide | Binder
28 | PSSKKNKPNPPPGS [YJL056C 176-189]
8.5 | PSSHKRKPVIPWDA [YNL295W 201-214]
16 | PTVQKFSPHPPTTL [YER144C 362-375]
118 | QELPRAIPVMPFVD [YJL020C 471-484]
1380 | PVRSRVLPATPRQI [YKL086W 103-116]
432 | PYMYKYLPRFPNLK [YPL137C 764-777]
37.1 | QATGRRGPAPPPPP [YOR181W 378-391]
145 | PVPVRMQPQPPQPM [YBR108W 383-396]
11.2 | PTANKYAPVSPTVQ [YPL085W 797-810]
11.3 | PSHYRNIPYNPATF [YBR194W 90-103]
70.1 | PSRSKSNPILPIMR [YLR319C 684-697]

— publication PMC314469, “Protein Interaction Networks by Proteome Peptide Scanning” (PLoS Biology, 2004)
